Source: patent publication US20210324359A1, “USE OF GRAM-NEGATIVE LYSIN-ANTIMICROBIAL PEPTIDE (AMP) POLYPEPTIDE CONSTRUCTS IN TREATING ENDOCARDITIS” (priority 2020, published 2021)
Values joined by “and” are separate entries in the source; they are usually repeats but may differ in a detail not shown here. Equal values may be shown once.

Key:
[1] = system: Pseudomonas aeruginosa biofilm; assay: MBEC in CAA supplemented with […] human serum (Table 14); format: cell-based
Experimental: Biofilms are then washed and treated with e.g., a 2-fold dilution series of the lysin in TSBg at e.g., 37° C. for 24 hours. After treatment, wells are washed, air-dried at e.g., 37° C. and stained with e.g., 0.05% crystal violet for 10 minutes.
Materials and methods: MICs were determined by broth microdilution in media supplemented with human serum and pulmonary surfactant ([…]®; Myoderm Clinical Supplies). Minimal biofilm eradicating concentrations (MBECs) were determined using standard methods. […] Fluorescence microscopy was performed after LIVE/DEAD staining (ThermoFisher) and TEM was performed.

P. aeruginosa isolates = assay: MIC against a range of isolates in CAA + […] human serum (Table 11); format: cell-based, Pseudomonas aeruginosa
[2] = system: carbapenem-resistant P. aeruginosa strains; assay: Resensitization of carbapenem-resistant strains, combinations with imipenem or meropenem (Tables 18-22); format: cell-based, Pseudomonas aeruginosa

B1: GN121: variant lysin (SEQ ID NO: 175), also disclosed in WO 2019/118632 (protein)
chain: MTYTLSKRSLDNLKGVHPDLVAVVHRAIQLTPVDFAVIEGLRSVSRQKELVAAGASKTMNSRHLTGHAVDLAAYVNGIRWDWPLYDAIAVAVKAAAKELGVAIVWGGDWTTFKDGPHFELDRSKYRRKKTRKRLKKIGKVLKWI
MBEC in CAA supplemented with […] human serum [1]: 0.25 µg/mL | activity against P. aeruginosa isolates in human serum or SURVANTA (P. aeruginosa isolates; Tables 11 and 12): active against a variety of P. aeruginosa isolates | MIC, CAA + […] Human Serum (P. aeruginosa isolates; strain CFS 1109 (ATCC 17646)): 0.5 µg/mL | MIC, CAA + […] Human Serum (P. aeruginosa isolates; strain CFS 1292): 1 µg/mL | MIC, CAA + […] Human Serum (P. aeruginosa isolates; strain CFS1539 (PA1)): 0.5 µg/mL | MIC, CAA + […] Human Serum (P. aeruginosa isolates; strain CFS 1540 (PA2)): 0.5 µg/mL | MIC, CAA + […] Human Serum (P. aeruginosa isolates; strain CFS 1541 (PA3)): 0.5 µg/mL | MIC, CAA + […] Human Serum (P. aeruginosa isolates; strain CFS 1557 (PA19)): 2 µg/mL | MIC, CAA + […] Human Serum (P. aeruginosa isolates; strain CFS 1558 (PA20)): 0.5 µg/mL | MIC, CAA + […] Human Serum (P. aeruginosa isolates; strain CFS 1559 (PA21)): 1 µg/mL | MIC, CAA + […] Human Serum (P. aeruginosa isolates; strain CFS 1560 (PA22)): 1 µg/mL | MIC, CAA + […] Human Serum (P. aeruginosa isolates; strain CFS 1561 (PA23)): 1 µg/mL | MIC, CAA + […] Human Serum (P. aeruginosa isolates; strain CFS 1562 (PA24)): 1 µg/mL | MIC, CAA + […] Human Serum (P. aeruginosa isolates; strain CFS 1596 (PA26)): 0.5 µg/mL | MIC, CAA + […] Human Serum (P. aeruginosa isolates; strain CFS 1597 (PA27)): 0.5 µg/mL | MIC, CAA + […] Human Serum (P. aeruginosa isolates; strain CFS 1669 (PA41)): 1 µg/mL | MIC, CAA + […] Human Serum (P. aeruginosa isolates; strain CFS 1674 (PA46)): 0.5 µg/mL | MIC, CAA + […] Human Serum (P. aeruginosa isolates; strain CFS 1675 (PA47)): 0.5 µg/mL | MIC, CAA + […] Human Serum (P. aeruginosa isolates; strain CFS 1766 (ATCC 27853)): 2 µg/mL | resensitization to carbapenems in synergistic combinations ([2]; imipenem (IPM) and meropenem (MEM), carbapenem-resistant isolates): reductions of IPM and MEM MICS to below breakpoint values | lysin MIC, Combination ([2]; in combination with imipenem, isolate PA19): 0.125 µg/mL | lysin MIC, Combination ([2]; in combination with imipenem, isolate PA20): 0.25 µg/mL | lysin MIC, Combination ([2]; in combination with imipenem, isolate PA21): 0.125 µg/mL | lysin MIC, Combination ([2]; in combination with imipenem, isolate PA22): 0.25 µg/mL | lysin MIC, Combination ([2]; in combination with imipenem, isolate PA23): 0.25 µg/mL | lysin MIC, Combination ([2]; in combination with imipenem, isolate PA24): 0.125 µg/mL | lysin MIC, Combination ([2]; in combination with meropenem, isolate PA19): 0.5 µg/mL | lysin MIC, Combination ([2]; in combination with meropenem, isolate PA20): 0.5 µg/mL | lysin MIC, Combination ([2]; in combination with meropenem, isolate PA22): 0.25 µg/mL | lysin MIC, Combination ([2]; in combination with meropenem, isolate PA23): 0.5 µg/mL | lysin MIC, Combination ([2]; in combination with meropenem, isolate WC-452): 0.06 µg/mL | MIC, Alone ([2]; isolate PA19): 1 µg/mL and 2 µg/mL | MIC, Alone ([2]; isolate PA20): 1 µg/mL and 2 µg/mL | MIC, Alone ([2]; isolate PA21): 1 µg/mL | MIC, Alone ([2]; isolate PA22): 2 µg/mL and 1 µg/mL | MIC, Alone ([2]; isolate PA23): 1 µg/mL and 2 µg/mL | MIC, Alone ([2]; isolate PA24): 1 µg/mL | MIC, Alone ([2]; isolate WC-452): 1 µg/mL | FICI ([2]; lysin + imipenem, isolate PA19): 0.155 | FICI ([2]; lysin + imipenem, isolate PA20): 0.265 | FICI ([2]; lysin + imipenem, isolate PA21): 0.155 | FICI ([2]; lysin + imipenem, isolate PA22): 0.188 | FICI ([2]; lysin + imipenem, isolate PA23): 0.257 | FICI ([2]; lysin + imipenem, isolate PA24): 0.155 | FICI ([2]; lysin + meropenem, isolate PA19): 0.281 | FICI ([2]; lysin + meropenem, isolate PA20): 0.313 | FICI ([2]; lysin + meropenem, isolate PA21): 0.188 | FICI ([2]; lysin + meropenem, isolate PA22): 0.313 | FICI ([2]; lysin + meropenem, isolate PA23): 0.375 | FICI ([2]; lysin + meropenem, isolate PA24): 0.156 | FICI ([2]; lysin + meropenem, isolate WC-452): 0.123
